Test results reported in patent publication US20230293649A1 (BIOVENTURES, published 2023).

T1: cathepsin K (Cathepsin K Drug Discovery Kit, Enzo Life Sciences) (UniProt P43235 115-329, limits assumed)
T1 construct: also called CTSK; CatK
T1 sequence (looked up): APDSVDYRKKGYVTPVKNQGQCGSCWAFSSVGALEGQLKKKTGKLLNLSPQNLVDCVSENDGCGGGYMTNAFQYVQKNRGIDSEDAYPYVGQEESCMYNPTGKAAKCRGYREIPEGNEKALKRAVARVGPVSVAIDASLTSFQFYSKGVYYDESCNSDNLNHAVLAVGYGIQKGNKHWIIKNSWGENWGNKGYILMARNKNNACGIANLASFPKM

T2: E-cadherin, P12830
T2 chain: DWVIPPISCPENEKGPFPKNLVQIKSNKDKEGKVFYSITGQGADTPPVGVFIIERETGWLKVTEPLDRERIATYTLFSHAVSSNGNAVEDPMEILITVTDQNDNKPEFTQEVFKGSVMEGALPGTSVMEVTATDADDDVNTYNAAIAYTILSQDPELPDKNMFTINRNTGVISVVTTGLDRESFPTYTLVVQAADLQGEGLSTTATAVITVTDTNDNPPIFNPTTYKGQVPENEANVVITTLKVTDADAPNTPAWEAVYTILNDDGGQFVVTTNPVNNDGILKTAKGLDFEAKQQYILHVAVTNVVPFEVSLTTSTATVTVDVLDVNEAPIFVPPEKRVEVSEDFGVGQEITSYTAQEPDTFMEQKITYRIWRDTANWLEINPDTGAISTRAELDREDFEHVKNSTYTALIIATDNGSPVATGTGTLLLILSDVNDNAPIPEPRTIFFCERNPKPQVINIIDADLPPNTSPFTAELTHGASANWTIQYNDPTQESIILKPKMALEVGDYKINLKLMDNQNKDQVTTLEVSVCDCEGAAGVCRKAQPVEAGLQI

T3: N-cadherin, P19022
T3 chain: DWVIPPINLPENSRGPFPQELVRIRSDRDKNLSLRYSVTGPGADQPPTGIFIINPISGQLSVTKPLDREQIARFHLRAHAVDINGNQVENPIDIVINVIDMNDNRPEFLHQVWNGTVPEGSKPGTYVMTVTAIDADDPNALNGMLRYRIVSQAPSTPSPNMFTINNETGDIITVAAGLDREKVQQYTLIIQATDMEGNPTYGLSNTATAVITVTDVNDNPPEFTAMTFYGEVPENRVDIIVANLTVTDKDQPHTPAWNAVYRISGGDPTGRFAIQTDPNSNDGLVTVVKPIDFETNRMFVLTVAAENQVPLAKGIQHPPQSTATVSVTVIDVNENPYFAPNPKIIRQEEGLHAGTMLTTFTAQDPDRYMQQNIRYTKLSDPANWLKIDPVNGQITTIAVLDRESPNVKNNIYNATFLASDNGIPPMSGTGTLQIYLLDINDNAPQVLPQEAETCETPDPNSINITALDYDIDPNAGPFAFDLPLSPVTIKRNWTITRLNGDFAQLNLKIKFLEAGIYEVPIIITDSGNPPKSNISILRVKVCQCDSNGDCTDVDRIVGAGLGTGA

T4: recombinant CST6 (R&D Systems, Minneapolis, MN), Q15828
T4 chain: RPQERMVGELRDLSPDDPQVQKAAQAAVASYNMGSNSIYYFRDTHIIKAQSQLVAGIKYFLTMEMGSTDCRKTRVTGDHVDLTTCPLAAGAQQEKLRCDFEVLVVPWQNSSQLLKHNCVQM

B1: recombinant CST6 (R&D Systems, Minneapolis, MN) (other, UniProt Q15828 29-149, looked up)
chain: RPQERMVGELRDLSPDDPQVQKAAQAAVASYNMGSNSIYYFRDTHIIKAQSQLVAGIKYFLTMEMGSTDCRKTRVTGDHVDLTTCPLAAGAQQEKLRCDFEVLVVPWQNSSQLLKHNCVQM
notes: also called recombinant cystatin E/M; cystatin M/E
B2: cathepsin K (Cathepsin K Drug Discovery Kit, Enzo Life Sciences) (protein)
chain: APDSVDYRKKGYVTPVKNQGQCGSCWAFSSVGALEGQLKKKTGKLLNLSPQNLVDCVSENDGCGGGYMTNAFQYVQKNRGIDSEDAYPYVGQEESCMYNPTGKAAKCRGYREIPEGNEKALKRAVARVGPVSVAIDASLTSFQFYSKGVYYDESCNSDNLNHAVLAVGYGIQKGNKHWIIKNSWGENWGNKGYILMARNKNNACGIANLASFPKM

Columns and labels:
[1] = biological target: T1, cathepsin K (Cathepsin K Drug Discovery …); test: inhibition of cathepsin K cleavage of the fluorogenic substrate Z-Phe-Arg-AMC; non-linear regression of initial rates
Procedure: The ability of recombinant CST6 (R&D Systems, Minneapolis, MN) to inhibit cathepsin K protease activity was assessed using the Cathepsin K Drug Discovery Kit (Enzo Life Sciences International, Plymouth Meeting, PA). Fluorimetric assays were done in triplicate in 96-well microtitre plates using cathepsin K, the fluorogenic synthetic substrate Z-Phe-Arg-AMC in the presence of the cathepsin K assay buffer. Inhibitory activity of CST6 towards cathepsin K was measured in serum-free conditioned media from the H929 cell line stably infected with pWPI or CST6 lentivirus. Conditioned media equating to 25 μg was added to each well and inhibitory activity was evaluated by measuring the residual enzyme activity. Recombinant CST6 was added to assays at various concentrations and the resultant fluorescence was measured using a SpectraMax M2 microplate reader (Molecular Devices, Sunnyvale, CA) with excitation at 380 nm and emission at 460 nm wavelengths. The initial rates from the CatK progress curves in the presence of predetermined concentrations of recombinant CST6 were subjected to non-linear regression analysis (Morrison and Walsh, 1988) using GraFit® software (Erithacus Software Limited, Surrey, UK) to determine the inhibition constant (Ki).

E-cadherin, P12830 = biological target: T2, E-cadherin, P12830
N-cadherin, P19022 = biological target: T3, N-cadherin, P19022
[2] = biological target: T4, recombinant CST6 (R&D Systems, …)

Binder	Ki [1] [nM]	cleavage of E-cadherin (in vitro assay) (E-cadherin, P12830)	cleavage of N-cadherin (in vitro assay) (N-cadherin, P19022)	cleavage of E- and N-cadherin by cathepsin K (in vitro assay) [2]
B1	3.84	–	–	–
B2	–	cathepsin K can cleave E- and N-cadherin using an in vitro assay	cathepsin K can cleave E- and N-cadherin using an in vitro assay	the addition of recombinant Cst6 can inhibit this cleavage
